From patent EP4644412A1

Target: TPO receptor (TPOR)
Experiment: cell-based or functional assay

EC50 of relative cell proliferation of BaF3/MPL cells (Cell Titer-Glo, 48 h): 1.7 ng/mL
Substance: Human TPO synthetic protein (rhTPO) (from UniProt P40225 22-353) (ligand)
